Test results as given in PMC2835651.

Test system: Cc1cn([C@H]2C[C@H](O)[C@@H](COP(=O)(O)OP(=O)(O)OP(=O)(O)O)O2)c(=O)[nH]c1=O
Assay: purified protein
Conditions: poly(rA)/oligo(dT)15 template/primer; 25-250 μM TTP; labelled compound

PFV PR-RT (Human spumaretrovirus)
Km: 45 (± 12) μM
kcat: 7.1 s⁻¹
